Target: T1, EGFR on EGFR-positive SW480 cells (human, UniProt P00533 25-1210)
T1 construct: whole, on cells; also called epidermal growth factor receptor
Assay: cell-based ELISA on EGFR-positive SW480 cells, around 2 hours after MMP2 treatment
Description: Briefly, EGFR-positive SW480 cells or HER2-positive SKBr3 cells were seed on a 96-well plate by 10⁵ cells/well using 200 μl of growth medium (DMEM+10% CCS+1% P/S), and incubated at 37° C. overnight.

- antigen binding capability (% of parent antibody): ~90%
B1: MMP2-treated IgG1 hinge/MMP2/panitumumab (antibody, V domains shown, not shown: small tags and cut ends)
VH: QVQLVQSGAEVKKPGASVKVSCKASGYTFTSYWMHWVRQAPGQGLEWMGNIYPGSGGTNYAEKFKNRVTMTRDTSISTAYMELSRLRSDDTAVYYCARSGGPYFFDYWGQGTLVTVSS
VL: DIVMTQSPLSLPVTPGEPASISCRSSQNIVHNNGITYLEWYLQKPGQSPQLLIYKVSDRFSGVPDRFSGSGSGTDFTLKISRVEAEDVGVYYCFQGSHIPPTFGQGTKVEIKR
notes: m14 around 2 hours after MMP2 treatment
